The target of series [1] is T1, atf-5 (T04C10.4) (Caenorhabditis elegans) (UniProt Q22156).
T1 sequence: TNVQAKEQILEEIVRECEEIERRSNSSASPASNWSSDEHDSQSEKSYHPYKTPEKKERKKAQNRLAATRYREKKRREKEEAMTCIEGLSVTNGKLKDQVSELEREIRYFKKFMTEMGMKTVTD

In series [2] the target is atf-7 (C07G2.2) (Caenorhabditis elegans) (UniProt Q86MD3).
Series [3] deals with T2, xbp-1 (R74.3) (Caenorhabditis elegans) (UniProt G5EE07).
T2 sequence: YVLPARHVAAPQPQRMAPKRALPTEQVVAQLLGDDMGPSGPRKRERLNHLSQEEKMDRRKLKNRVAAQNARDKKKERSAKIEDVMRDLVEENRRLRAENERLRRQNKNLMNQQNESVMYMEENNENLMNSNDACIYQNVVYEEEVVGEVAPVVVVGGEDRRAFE

Series [4] addresses T3, zip-3 (W07G1.3) (Caenorhabditis elegans) (UniProt Q9XUK2).
T3 sequence: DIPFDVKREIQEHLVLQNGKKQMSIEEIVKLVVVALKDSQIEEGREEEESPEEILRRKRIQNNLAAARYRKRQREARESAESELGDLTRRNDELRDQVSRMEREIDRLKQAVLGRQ

Series [5] concerns the target T4, ref-2 (C47C12.3) (Caenorhabditis elegans) (UniProt Q7JNM3).
T4 sequence: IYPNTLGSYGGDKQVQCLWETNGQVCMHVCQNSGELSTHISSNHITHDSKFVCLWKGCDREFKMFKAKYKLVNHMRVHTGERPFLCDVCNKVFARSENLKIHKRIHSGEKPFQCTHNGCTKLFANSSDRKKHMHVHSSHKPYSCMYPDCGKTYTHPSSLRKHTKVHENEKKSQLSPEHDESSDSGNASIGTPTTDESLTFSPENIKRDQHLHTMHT

For series [6], the target named is T5, W08E12.1 (W08E12.1) (Caenorhabditis elegans) (UniProt Q9N5A8).
T5 sequence: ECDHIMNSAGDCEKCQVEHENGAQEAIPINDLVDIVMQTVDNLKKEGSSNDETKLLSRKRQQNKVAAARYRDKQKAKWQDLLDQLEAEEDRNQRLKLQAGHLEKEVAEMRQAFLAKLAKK

For series [7], the target named is T6, Y51H4A.4 (Y51H4A.4) (Caenorhabditis elegans) (UniProt Q9NAE4).
T6 sequence: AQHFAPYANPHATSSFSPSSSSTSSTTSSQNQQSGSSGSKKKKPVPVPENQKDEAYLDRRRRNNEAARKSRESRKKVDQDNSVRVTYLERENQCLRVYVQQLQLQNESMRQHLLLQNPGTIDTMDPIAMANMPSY

Series [8] deals with T7, atf-6 (F45E6.2) (Caenorhabditis elegans) (UniProt Q20435).
T7 sequence: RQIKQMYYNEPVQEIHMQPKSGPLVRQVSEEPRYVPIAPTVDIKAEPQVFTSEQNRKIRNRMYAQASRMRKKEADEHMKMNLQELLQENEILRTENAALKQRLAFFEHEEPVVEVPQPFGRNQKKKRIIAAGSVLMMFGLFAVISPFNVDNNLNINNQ

The target in series [9] is T8, F17A9.3 (F17A9.3) (Caenorhabditis elegans) (UniProt O16213).
T8 sequence: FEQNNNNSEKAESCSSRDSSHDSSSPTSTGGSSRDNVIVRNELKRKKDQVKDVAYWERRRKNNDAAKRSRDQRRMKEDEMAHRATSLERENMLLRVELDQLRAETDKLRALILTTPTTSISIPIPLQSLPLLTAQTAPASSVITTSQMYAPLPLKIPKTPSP

Series [10] concerns the target T9, T07C12.11 (T07C12.11) (Caenorhabditis elegans) (UniProt G5EGG9).
T9 sequence: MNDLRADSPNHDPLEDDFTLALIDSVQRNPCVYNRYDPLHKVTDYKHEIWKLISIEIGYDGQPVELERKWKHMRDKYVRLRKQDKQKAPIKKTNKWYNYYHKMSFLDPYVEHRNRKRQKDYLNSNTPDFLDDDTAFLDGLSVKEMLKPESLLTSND

The target of series [11] is T10, atf-2 (K08F8.2) (Caenorhabditis elegans) (UniProt Q21361).
T10 sequence: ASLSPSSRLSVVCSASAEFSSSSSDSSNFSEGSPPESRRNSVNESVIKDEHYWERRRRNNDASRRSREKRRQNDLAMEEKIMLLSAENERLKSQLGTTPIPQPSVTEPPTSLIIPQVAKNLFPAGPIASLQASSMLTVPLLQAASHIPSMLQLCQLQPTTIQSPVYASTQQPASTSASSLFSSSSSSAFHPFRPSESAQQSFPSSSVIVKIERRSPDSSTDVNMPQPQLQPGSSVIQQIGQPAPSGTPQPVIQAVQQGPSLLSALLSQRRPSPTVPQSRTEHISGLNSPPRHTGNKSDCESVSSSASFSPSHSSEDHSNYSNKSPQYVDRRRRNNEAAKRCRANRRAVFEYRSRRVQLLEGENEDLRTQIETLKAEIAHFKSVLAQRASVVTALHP

This note sets out measurements from paper PMC4434323.

Chain of atf-7 (C07G2.2) (Caenorhabditis elegans) (Q86MD3 339-508): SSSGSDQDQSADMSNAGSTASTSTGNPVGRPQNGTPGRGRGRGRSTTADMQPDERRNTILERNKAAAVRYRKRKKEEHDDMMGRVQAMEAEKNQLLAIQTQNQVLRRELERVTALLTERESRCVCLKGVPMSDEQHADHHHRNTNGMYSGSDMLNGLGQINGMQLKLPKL

With “ACGTCATC (double strand) [8-mer ACGTCATC]”, the binding signal (PBM E-score (-0.5 to 0.5)) in [1] worked out at 0.49; in series [2], 0.499; in series [3], 0.471; in [4], 0.493.
For “ATGACGTG (double strand) [8-mer ATGACGTG]” the same measures were 0.485, 0.499, 0.451 and 0.494.
The sequence “CAGCGGGA (double strand) [8-mer CAGCGGGA]” gave a binding signal (PBM E-score (-0.5 to 0.5)) in series [5] of 0.483.
As for “TGACGTAA (double strand) [8-mer TGACGTAA]”, the binding signal (PBM E-score (-0.5 to 0.5)) in series [6] is 0.47; in series [7] it was 0.454; in series [1], 0.49; in series [8], 0.459; in series [2], 0.495.
“TGACGTCA (double strand) [8-mer TGACGTCA]”: the binding signal (PBM E-score (-0.5 to 0.5)) in [6], in series [1], in series [2] and in [4] was 0.5 each time.
For the sequence “TTACGTAA (double strand) [8-mer TTACGTAA]”, the binding signal (PBM E-score (-0.5 to 0.5)) was determined as 0.498 in series [9], 0.496 in series [10], 0.498 in [7] and 0.478 in series [11].
